# Measured values reported in patent publication US20240270846A1 (published 2024).
# Target: T1, CD3 epsilon homodimer protein (UniProt P07766 23-126)
# T1 construct: also called CD3 (CD3 epsilon)
# Assay: SPR Biacore T200, antibody over immobilised CD3e homodimer;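 note: CD3 epsilon homodimer amine-coupled on a CM4 chip, run at 25 °C in HBS-EP+, Z = bound amount of each single-residue H chain variant over that of the parent antibody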
# T1 sequence (P07766 23-126): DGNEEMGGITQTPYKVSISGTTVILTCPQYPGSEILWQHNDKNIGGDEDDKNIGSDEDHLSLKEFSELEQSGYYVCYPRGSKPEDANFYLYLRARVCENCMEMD
row,Binder,ratio of amounts bound (Z=Y/X vs CE115HA000)
1,"CE115HA000 H35Y one-arm antibody (antibody, human IgG1, kappa, L234A L235A, N297A, name in Kabat numbering, one-arm antibody) heavy: QVQLVESGGGVVQPGRSLRLSCAASGFTFSNAWMYWVRQAPGKGLEWVAQIKAKSNNYATYYAESVKGRFTISRDDSKNSLYLQMNSLKTEDTAVYYCRYVHYGAYYGVDAWGQGTTVTVSSASTKGPSVFPLAPSSKSTSGGTAALGCLVKDYFPEPVTVSWNSGALTSGVHTFPAVLQSSGLYSLSSVVTVPSSSLGTQTYICNVNHKPSNTKVDKKVEPKSCDKTHTCPPCPAPEAAGGPSVFLFPPKPKDTLMISRTPEVTCVVVDVSHEDPEVKFNWYVDGVEVHNAKTKPREEQYASTYRVVSVLTVLHQDWLNGKEYKCKVSNKALPAPIEKTISKAKGQPREPQVYTLPPSRCELTKNQVSLSCAVKGFYPSDIAVEWESNGQPENNYKTTPPVLDSDGSFFLVSKLTVDKSRWQQGNVFSCSVMHEALHNHYTQKSLSLSPDYKDDDDK EPKSSDKTHTCPPCPAPELLGGPSVFLFPPKPKDTLMISRTPEVTCVVVDVSHEDPEVKFNWYVDGVEVHNAKTKPREEQYNSTYRVVSVLTVLHQDWLNGKEYKCKVSNKALPAPIEKTISKAKGQPREPQVCTLPPSRDELTKNQVSLWCLVKGFYPSDIAVEWESNGQPENNYKTTPPVLDSDGSFFLYSKLTVDKSRWQQGNVFSCSVMHEALHNRYTQKSLSLSP light: DIVMTQSPLSLPVTPGEPASISCRSSQSLVHSNRNTYLHWYQQKPGQAPRLLIYKVSNRFSGVPDRFSGSGSGTDFTLKISRVEAEDVGVYYCGQGTQVPYTFGQGTKLEIKRTVAAPSVFIFPPSDEQLKSGTASVVCLLNNFYPREAKVQWKVDNALQSGNSQESVTEQDSKDSTYSLSSTLTLSKADYEKHKVYACEVTHQGLSSPVTKSFNRGEC",0.16
2,"CE115HA000 I51E one-arm antibody (antibody, human IgG1, kappa, L234A L235A, N297A, name in Kabat numbering, one-arm antibody) heavy: QVQLVESGGGVVQPGRSLRLSCAASGFTFSNAWMHWVRQAPGKGLEWVAQEKAKSNNYATYYAESVKGRFTISRDDSKNSLYLQMNSLKTEDTAVYYCRYVHYGAYYGVDAWGQGTTVTVSSASTKGPSVFPLAPSSKSTSGGTAALGCLVKDYFPEPVTVSWNSGALTSGVHTFPAVLQSSGLYSLSSVVTVPSSSLGTQTYICNVNHKPSNTKVDKKVEPKSCDKTHTCPPCPAPEAAGGPSVFLFPPKPKDTLMISRTPEVTCVVVDVSHEDPEVKFNWYVDGVEVHNAKTKPREEQYASTYRVVSVLTVLHQDWLNGKEYKCKVSNKALPAPIEKTISKAKGQPREPQVYTLPPSRCELTKNQVSLSCAVKGFYPSDIAVEWESNGQPENNYKTTPPVLDSDGSFFLVSKLTVDKSRWQQGNVFSCSVMHEALHNHYTQKSLSLSPDYKDDDDK EPKSSDKTHTCPPCPAPELLGGPSVFLFPPKPKDTLMISRTPEVTCVVVDVSHEDPEVKFNWYVDGVEVHNAKTKPREEQYNSTYRVVSVLTVLHQDWLNGKEYKCKVSNKALPAPIEKTISKAKGQPREPQVCTLPPSRDELTKNQVSLWCLVKGFYPSDIAVEWESNGQPENNYKTTPPVLDSDGSFFLYSKLTVDKSRWQQGNVFSCSVMHEALHNRYTQKSLSLSP light: DIVMTQSPLSLPVTPGEPASISCRSSQSLVHSNRNTYLHWYQQKPGQAPRLLIYKVSNRFSGVPDRFSGSGSGTDFTLKISRVEAEDVGVYYCGQGTQVPYTFGQGTKLEIKRTVAAPSVFIFPPSDEQLKSGTASVVCLLNNFYPREAKVQWKVDNALQSGNSQESVTEQDSKDSTYSLSSTLTLSKADYEKHKVYACEVTHQGLSSPVTKSFNRGEC",0.55
3,"CE115HA000 K43E one-arm antibody (antibody, human IgG1, kappa, L234A L235A, N297A, name in Kabat numbering, one-arm antibody) heavy: QVQLVESGGGVVQPGRSLRLSCAASGFTFSNAWMHWVRQAPGEGLEWVAQIKAKSNNYATYYAESVKGRFTISRDDSKNSLYLQMNSLKTEDTAVYYCRYVHYGAYYGVDAWGQGTTVTVSSASTKGPSVFPLAPSSKSTSGGTAALGCLVKDYFPEPVTVSWNSGALTSGVHTFPAVLQSSGLYSLSSVVTVPSSSLGTQTYICNVNHKPSNTKVDKKVEPKSCDKTHTCPPCPAPEAAGGPSVFLFPPKPKDTLMISRTPEVTCVVVDVSHEDPEVKFNWYVDGVEVHNAKTKPREEQYASTYRVVSVLTVLHQDWLNGKEYKCKVSNKALPAPIEKTISKAKGQPREPQVYTLPPSRCELTKNQVSLSCAVKGFYPSDIAVEWESNGQPENNYKTTPPVLDSDGSFFLVSKLTVDKSRWQQGNVFSCSVMHEALHNHYTQKSLSLSPDYKDDDDK EPKSSDKTHTCPPCPAPELLGGPSVFLFPPKPKDTLMISRTPEVTCVVVDVSHEDPEVKFNWYVDGVEVHNAKTKPREEQYNSTYRVVSVLTVLHQDWLNGKEYKCKVSNKALPAPIEKTISKAKGQPREPQVCTLPPSRDELTKNQVSLWCLVKGFYPSDIAVEWESNGQPENNYKTTPPVLDSDGSFFLYSKLTVDKSRWQQGNVFSCSVMHEALHNRYTQKSLSLSP light: DIVMTQSPLSLPVTPGEPASISCRSSQSLVHSNRNTYLHWYQQKPGQAPRLLIYKVSNRFSGVPDRFSGSGSGTDFTLKISRVEAEDVGVYYCGQGTQVPYTFGQGTKLEIKRTVAAPSVFIFPPSDEQLKSGTASVVCLLNNFYPREAKVQWKVDNALQSGNSQESVTEQDSKDSTYSLSSTLTLSKADYEKHKVYACEVTHQGLSSPVTKSFNRGEC",0.9
4,"CE115HA000 K52D one-arm antibody (antibody, human IgG1, kappa, L234A L235A, N297A, name in Kabat numbering, one-arm antibody) heavy: QVQLVESGGGVVQPGRSLRLSCAASGFTFSNAWMHWVRQAPGKGLEWVAQIDAKSNNYATYYAESVKGRFTISRDDSKNSLYLQMNSLKTEDTAVYYCRYVHYGAYYGVDAWGQGTTVTVSSASTKGPSVFPLAPSSKSTSGGTAALGCLVKDYFPEPVTVSWNSGALTSGVHTFPAVLQSSGLYSLSSVVTVPSSSLGTQTYICNVNHKPSNTKVDKKVEPKSCDKTHTCPPCPAPEAAGGPSVFLFPPKPKDTLMISRTPEVTCVVVDVSHEDPEVKFNWYVDGVEVHNAKTKPREEQYASTYRVVSVLTVLHQDWLNGKEYKCKVSNKALPAPIEKTISKAKGQPREPQVYTLPPSRCELTKNQVSLSCAVKGFYPSDIAVEWESNGQPENNYKTTPPVLDSDGSFFLVSKLTVDKSRWQQGNVFSCSVMHEALHNHYTQKSLSLSPDYKDDDDK EPKSSDKTHTCPPCPAPELLGGPSVFLFPPKPKDTLMISRTPEVTCVVVDVSHEDPEVKFNWYVDGVEVHNAKTKPREEQYNSTYRVVSVLTVLHQDWLNGKEYKCKVSNKALPAPIEKTISKAKGQPREPQVCTLPPSRDELTKNQVSLWCLVKGFYPSDIAVEWESNGQPENNYKTTPPVLDSDGSFFLYSKLTVDKSRWQQGNVFSCSVMHEALHNRYTQKSLSLSP light: DIVMTQSPLSLPVTPGEPASISCRSSQSLVHSNRNTYLHWYQQKPGQAPRLLIYKVSNRFSGVPDRFSGSGSGTDFTLKISRVEAEDVGVYYCGQGTQVPYTFGQGTKLEIKRTVAAPSVFIFPPSDEQLKSGTASVVCLLNNFYPREAKVQWKVDNALQSGNSQESVTEQDSKDSTYSLSSTLTLSKADYEKHKVYACEVTHQGLSSPVTKSFNRGEC",0.25
5,"CE115HA000 I51D one-arm antibody (antibody, human IgG1, kappa, L234A L235A, N297A, name in Kabat numbering, one-arm antibody) heavy: QVQLVESGGGVVQPGRSLRLSCAASGFTFSNAWMHWVRQAPGKGLEWVAQDKAKSNNYATYYAESVKGRFTISRDDSKNSLYLQMNSLKTEDTAVYYCRYVHYGAYYGVDAWGQGTTVTVSSASTKGPSVFPLAPSSKSTSGGTAALGCLVKDYFPEPVTVSWNSGALTSGVHTFPAVLQSSGLYSLSSVVTVPSSSLGTQTYICNVNHKPSNTKVDKKVEPKSCDKTHTCPPCPAPEAAGGPSVFLFPPKPKDTLMISRTPEVTCVVVDVSHEDPEVKFNWYVDGVEVHNAKTKPREEQYASTYRVVSVLTVLHQDWLNGKEYKCKVSNKALPAPIEKTISKAKGQPREPQVYTLPPSRCELTKNQVSLSCAVKGFYPSDIAVEWESNGQPENNYKTTPPVLDSDGSFFLVSKLTVDKSRWQQGNVFSCSVMHEALHNHYTQKSLSLSPDYKDDDDK EPKSSDKTHTCPPCPAPELLGGPSVFLFPPKPKDTLMISRTPEVTCVVVDVSHEDPEVKFNWYVDGVEVHNAKTKPREEQYNSTYRVVSVLTVLHQDWLNGKEYKCKVSNKALPAPIEKTISKAKGQPREPQVCTLPPSRDELTKNQVSLWCLVKGFYPSDIAVEWESNGQPENNYKTTPPVLDSDGSFFLYSKLTVDKSRWQQGNVFSCSVMHEALHNRYTQKSLSLSP light: DIVMTQSPLSLPVTPGEPASISCRSSQSLVHSNRNTYLHWYQQKPGQAPRLLIYKVSNRFSGVPDRFSGSGSGTDFTLKISRVEAEDVGVYYCGQGTQVPYTFGQGTKLEIKRTVAAPSVFIFPPSDEQLKSGTASVVCLLNNFYPREAKVQWKVDNALQSGNSQESVTEQDSKDSTYSLSSTLTLSKADYEKHKVYACEVTHQGLSSPVTKSFNRGEC",0.29
6,"CE115HA000 K43Q one-arm antibody (antibody, human IgG1, kappa, L234A L235A, N297A, name in Kabat numbering, one-arm antibody) heavy: QVQLVESGGGVVQPGRSLRLSCAASGFTFSNAWMHWVRQAPGQGLEWVAQIKAKSNNYATYYAESVKGRFTISRDDSKNSLYLQMNSLKTEDTAVYYCRYVHYGAYYGVDAWGQGTTVTVSSASTKGPSVFPLAPSSKSTSGGTAALGCLVKDYFPEPVTVSWNSGALTSGVHTFPAVLQSSGLYSLSSVVTVPSSSLGTQTYICNVNHKPSNTKVDKKVEPKSCDKTHTCPPCPAPEAAGGPSVFLFPPKPKDTLMISRTPEVTCVVVDVSHEDPEVKFNWYVDGVEVHNAKTKPREEQYASTYRVVSVLTVLHQDWLNGKEYKCKVSNKALPAPIEKTISKAKGQPREPQVYTLPPSRCELTKNQVSLSCAVKGFYPSDIAVEWESNGQPENNYKTTPPVLDSDGSFFLVSKLTVDKSRWQQGNVFSCSVMHEALHNHYTQKSLSLSPDYKDDDDK EPKSSDKTHTCPPCPAPELLGGPSVFLFPPKPKDTLMISRTPEVTCVVVDVSHEDPEVKFNWYVDGVEVHNAKTKPREEQYNSTYRVVSVLTVLHQDWLNGKEYKCKVSNKALPAPIEKTISKAKGQPREPQVCTLPPSRDELTKNQVSLWCLVKGFYPSDIAVEWESNGQPENNYKTTPPVLDSDGSFFLYSKLTVDKSRWQQGNVFSCSVMHEALHNRYTQKSLSLSP light: DIVMTQSPLSLPVTPGEPASISCRSSQSLVHSNRNTYLHWYQQKPGQAPRLLIYKVSNRFSGVPDRFSGSGSGTDFTLKISRVEAEDVGVYYCGQGTQVPYTFGQGTKLEIKRTVAAPSVFIFPPSDEQLKSGTASVVCLLNNFYPREAKVQWKVDNALQSGNSQESVTEQDSKDSTYSLSSTLTLSKADYEKHKVYACEVTHQGLSSPVTKSFNRGEC",0.99
